In patent US11739318B1, “Modified biosensors and biocatalysts and methods of use” (priority 2017, dated 2023):
Where a chain is given by its changes, count along the chain named. In names and notes the source's numbering stands.

Columns and labels:
ccMA = experiment: Intracellular ccMA sensing with CatM sensor in strain CJ184, flow cytometry; format: cell-based, P. putida
Source text: FIG. 14A represents the Acinetobacter baylyi CatM promoter region used for selection of ccMA sensing in P. putida KT2440. The regions that were partially diversified or completely randomized are marked ‘red’ and the mutations pursued are labeled. For example −10 and −35 sites were partially randomized for saturation, the ribosome binding site (RBS) was made compatible to the consensus sequence AAGGAG followed by eight bases to the start codon “ATG” of the reporter. Overall the library diversity was expected to be well above 60,000. Using a method similar to what has been described in Example 1-3, catM gene, diversified regulatory region, and sfgfp were inserted into the pBTL2 backbone. The completed circular plasmids, carrying Kanamycin resistance marker, were then transformed into electrocompetent cells of P. putida strain CJ184. The transformation gave well above 60,000 colonies to cover the library adequately. […] Post 16 h of growth at 30° C., the samples were analyzed on a flow cytometer (BD FACSAria III). […] Post third round of sorted population, a fraction was plated on LB agar+Kan50 plates and a few colonies evaluated for PCA, Benzoate and Catechol response, considering CJ184 strain is capable of converting them all to final product ccMA. […]

[1] = individual mutations, hydrolysis of OPs; cited from earlier work
PXN = experiment: Whole cell catalysis and sensing of PON1 clones at varying PXN (contrast ratio); format: cell-based, E. coli; conditions: scaffold PON1-H115W
Procedure: (§1) FIGS. 17A-17G show evolution of PON1. […] Residue positions varied in library construction are indicated. […] The circled region is magnified (inset) for easy visualization of the bright colony. […] The contrast ratio is defined as total fluorescence of the cells in the presence of PXN over the background fluorescence of the cells in the absence of PXN. […] The product, pNP, is measured by absorbance (410 nm). Error bars are standard deviation from two independent assays with different fractions from size exclusion chromatography. […] Error bars are the standard deviation of two independent assays using elution fractions from first half and second half of the chromatogram peak from size exclusion chromatography.
In order to efficiently screen the library, the biosensor/biocatalyst plasmid consisting of variants of PON1 was directly transferred to high transformation efficiency DH5α cells. […] The colony picking can further be made more stringent by using lower PXN (for example 100 μM) in the growth media and colonies selected based on the fluorescence intensity under an illuminator.
The clones were further confirmed for improved activity by using clear cell lysates that were normalized for sfGFP fluorescence (the enzyme variants expressed as sfGFP-PON1 fusion by inducing the same clones with 200 μM pNP) and assayed for activity at different concentrations of PXN. […]

[2] = PON1 expression and solubility from fluorescence of the cell lysate; parameters: species or system E. coli; conditions: based on the fluorescence of the cell lysate
Procedure: The clones were further confirmed for improved activity by using clear cell lysates that were normalized for sfGFP fluorescence (the enzyme variants expressed as sfGFP-PON1 fusion by inducing the same clones with 200 μM pNP) and assayed for activity at different concentrations of PXN. […] The most notable aspect of comparison between the in vivo activity measurements (FIG. 17D) and the in vitro measurements (FIG. 17E) is the relative ranking of the different PON1 variants. While Lib1-C3.3 did show highest Vmax in both formats of experiment, the Lib2-D12 was the lowest in both cases. […] The solubility of other PON1 variants ranged between these two extreme values.

[3] = Paraoxonase activity of purified PON1 variants (pNP absorbance 410 nm); format: biochemical; conditions: 400 μM PXN
Procedure: as §1
Finally, the gene for top PON1 variant Lib1-C3.3 (H115W, L69V, K70Q, Y71L, G73A) and the scaffold (H115W) were transferred to a pRSF-1b vector (Novagen) and expressed as a C-terminal 6×His-tagged protein. Post two-step purification using affinity column and a size exclusion chromatography, pure fractions were combined and tested for activity at varying concentrations of PXN. […]

pNP sensor = experiment: Raw whole cell fluorescence with pNP sensor and sfGFP-PON1 under positive feedback regulation, flow cytometer; format: cell-based, E. coli; conditions: mean of duplicate cultures ± SD
Source text: FIGS. 16A-16D show ‘Catalyze’ and ‘sense’ system for hydrolysis reactions. […] UI: background fluorescence from cells without any pNP source to induce the TF; […]; pNP: TF induced by exogenously supplied pNP as a control/reference. […] Relative activity levels are distinguishable by eye.
The technique described here (referred to in this example as “smart microbial cells” or SMC; e.g., FIGS. 1A and 1B) allows for catalysis and sensing in the same microbial cell. For a practical library application, we simplified and improved the signal to noise ratio of the biosensor. This was achieved by gene fusing the PON1 to the GFP so that the TF is also regulating the catalytic enzyme expression as well (scheme shown in FIG. 1B). This fusion is expected to have three distinct effects. First, it provides positive feedback, such that more the activity, the more PON1 is expressed, and in turn further ‘feeds’ the activity. […] Second, feedback will amplify the already present correlation between activity and GFP expression. Third, for suitably chosen GFP, the fluorescence signal conveniently reports the amount of fused PON1 present, allowing normalization for specific activity.
. Based on the catalytic efficiency and the cytoplasmic concentration of the hydrolase, PXN hydrolysis results in a correlated pNP production inside the microbial cell that ultimately determines activation of the pNP sensor and accumulation of sfGFP in the cells. […] When pNP was used as an inducer, such that the expression of sfGFP-PON1 expression is independent of the catalytic efficiency of PON1, modest differences in cell fluorescence were still captured across the PON1 variants indicating V346A mutation could be detrimental to PON1 expression and stability (FIG. 16C, Table 6).

B1: CatM_C2.9: CatM variant V97I, G127A, T128A, L147V with weaker ccMA sensitivity, SEQ ID NO: 25 (protein)
chain: MELRHLRYFVTVVEEQSISKAAEKLCIAQPPLSRQIQKLEEELGIQLFERGFRPAKVTEAGMFFYQHAVQILTHTAQASSMAKRIATVSQTLRIGYISSLLYGLLPEIIYLFRQQNPEIHIELIECAAKDQINALKQGKIDLGFGRVKITDPAIRRIVLHKEQLKLAIHKHHHLNQFAATGVHLSQIIDEPMLLYPVSQKPNFATFIQSLFTELGLVPSKLTEIREIQLALGLVAAGEGVCIVPASAMDIGVKNLLYIPILDDDAYSPISLAVRNMDHSNYIPKILACVQEVFATHHIRPLIE
modifications: CatM_C2.9
ccMA; CJ184
  ccMA titer for dose-response (low sensitivity): > 10 mM

B2: L69V: PON1 individual point mutation L69V from the literature (protein, UniProt P27169 2-355, looked up, variant L69V)
Serum …: AKLIALTLLGMGLALFRNHQSSYQTRLNALREVQPVELPNCNLVKGIETGSEDLEILPNGLAFISSGVKYPGIKSFNPNSPGKILLMDLNEEDPTVLELGITGSKFDVSSFNPHGISTFTDEDNAMYLLVVNHPDAKSTVELFKFQEEEKSLLHLKTIRHKLLPNLNDIVAVGPEHFYGTNDHYFLDPYLQSWEMYLGLAWSYVVYYSPSEVRVVAEGFDFANGINISPDGKYVYIAELLAHKIHVYEKHANWTLTPLKSLDFNTLVDNISVDPETGDLWVGCHPNGMKIFFYDSENPPASEVLRIQNILTEEPKVTQVYAENGTVLQGSTVASVYKGKLLIGTVFHKALYCEL
[1]
  higher catalytic efficiency over the wild-type: four- to sixteen and four

B3: Lib2-D12: PON1 clone from Lib2, H115W scaffold with F222I, F292I (protein, UniProt P27169 2-355, looked up, variant H115W F222I F292I)
Serum …: B2 Serum … with V68L, H114W, F221I, F291I
PXN
  contrast ratio higher than the scaffold: 2 fold
[2]
  protein yield compared to the scaffold: 50%

B4: Lib1-C3.3: top PON1 variant (H115W, L69V, K70Q, Y71L, G73A) (protein, UniProt P27169 2-355, looked up, variant H115W L69V K70Q Y71L G73A)
Serum …: B2 Serum … with K69Q, Y70L, G72A, H114W
[2]
  protein yield compared to the scaffold: 95%
[3]
  turnover number higher than the starting sequence: approximately thirty
[3]; at ten-fold lower protein concentration
  linear rate exceeding that of PON1-H115W: three

B5: V346A: published PON1 variant with mutation V346A (protein, UniProt P27169 2-355, looked up, variant V346A)
Serum …: B2 Serum … with V68L, V345A
pNP sensor; exogenous paraoxon 1.6 mM
  Raw whole cell fluorescence intensity, PXN (1.6 mM): 895 ± 39
pNP sensor; induced with exogenous pNP 200 μM
  Raw whole cell fluorescence intensity, pNP (200 μM): 6263 ± 57
pNP sensor; uninduced, no pNP source
  Raw whole cell fluorescence intensity, UI: 174 ± 29
[1]
  higher catalytic efficiency over the wild-type: four- to sixteen

B6: CatM_A9: CatM regulated promoter variant for reduced signal output, SEQ ID NO: 23 (nucleic acid)
DNA: TTATACGCCCTAATTGGTTTTATATACCTTTTTAGTATGCAAAAATACCAAATTGGTGTGGATTTTTATTATTACATTAATTTACAGTATGTAAATAGTATTTATTGAAAAGAAGATGGACCG
modifications: listed as DNA, chemistry not fully specified
ccMA; compared with CatM_C2
  fluorescence and dose-response: weaker fluorescence but very similar dose-response as the CatM_C2
